Reference: PMC12374985

Target: endogenous PKM2 (human (endogenous in A549, PC9 and HEK293T)) (UniProt P14618)
Assay: cross-linking

Chain of endogenous PKM2, P14618 1-531 (natural protein; other documents disagree on this pair) (P14618 whole entry): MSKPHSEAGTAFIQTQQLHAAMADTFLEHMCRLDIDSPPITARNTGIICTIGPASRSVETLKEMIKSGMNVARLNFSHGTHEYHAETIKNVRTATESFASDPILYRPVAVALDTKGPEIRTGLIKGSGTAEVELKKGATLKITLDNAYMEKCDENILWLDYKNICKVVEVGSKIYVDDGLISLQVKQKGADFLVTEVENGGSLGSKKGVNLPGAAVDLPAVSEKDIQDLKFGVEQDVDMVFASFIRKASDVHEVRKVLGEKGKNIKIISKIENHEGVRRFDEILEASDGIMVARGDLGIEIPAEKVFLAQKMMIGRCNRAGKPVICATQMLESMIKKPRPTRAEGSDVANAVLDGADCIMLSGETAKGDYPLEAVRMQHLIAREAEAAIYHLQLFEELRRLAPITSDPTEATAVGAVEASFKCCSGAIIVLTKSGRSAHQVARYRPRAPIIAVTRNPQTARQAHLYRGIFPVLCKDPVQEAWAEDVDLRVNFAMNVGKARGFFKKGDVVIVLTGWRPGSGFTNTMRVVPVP

- stoichiometry N: 2
Substance: endogenous PKM2, P14618 1-531 (natural protein; other documents disagree on this pair)
